Laboratory results as given in article PMC2064389 (The Journal of Cell Biology, 2006).
Read-outs that look alike come from different tables or passages of the source. One block for each molecule: values may come before it.

Assays:
Test in all cases: liposome flotation
[1] = molecular target: mArf1p (wild type or Q71L not told) (yeast) (UniProt P11076)
Chs5–Chs6[all] complex [2] = molecular target: T1, Chs5–Chs6[all] complex (yeast, UniProt Q12114 1-671; P40955 1-746; Q05029 1-724; Q08754 1-746; P36122 1-765)
Chs5–Chs6[all] complex [3] = molecular target: T1, Chs5–Chs6[all] complex; remark: listed apart in the source
[4] = molecular target: Complex of Chs5p with two paralogues (Chs6p and Bch1p) (yeast, UniProt Q12114 1-671; P40955 1-746; Q05029 1-724)
Sequence of Complex of Chs5p with two paralogues (Chs6p and Bch1p) (Q12114 whole entry, chain 1 of 3): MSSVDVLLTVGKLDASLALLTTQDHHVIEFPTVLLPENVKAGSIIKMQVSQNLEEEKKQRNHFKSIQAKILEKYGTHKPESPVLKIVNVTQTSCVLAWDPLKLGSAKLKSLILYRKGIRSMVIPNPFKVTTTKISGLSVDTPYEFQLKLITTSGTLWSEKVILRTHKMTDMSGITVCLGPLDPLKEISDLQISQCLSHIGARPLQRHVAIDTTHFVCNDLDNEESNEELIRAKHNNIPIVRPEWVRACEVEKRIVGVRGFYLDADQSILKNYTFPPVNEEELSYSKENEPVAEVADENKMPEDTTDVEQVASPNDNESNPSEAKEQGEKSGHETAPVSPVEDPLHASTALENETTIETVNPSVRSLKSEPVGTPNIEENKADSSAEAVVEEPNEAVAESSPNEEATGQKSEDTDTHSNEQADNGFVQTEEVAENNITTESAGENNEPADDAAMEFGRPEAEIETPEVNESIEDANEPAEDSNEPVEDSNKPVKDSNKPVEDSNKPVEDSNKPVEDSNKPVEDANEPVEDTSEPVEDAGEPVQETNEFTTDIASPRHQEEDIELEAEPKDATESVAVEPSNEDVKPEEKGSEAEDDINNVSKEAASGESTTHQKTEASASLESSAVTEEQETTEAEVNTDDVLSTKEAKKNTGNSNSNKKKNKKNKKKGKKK
Sequence of Complex of Chs5p with two paralogues (Chs6p and Bch1p) (P40955 whole entry, chain 2 of 3): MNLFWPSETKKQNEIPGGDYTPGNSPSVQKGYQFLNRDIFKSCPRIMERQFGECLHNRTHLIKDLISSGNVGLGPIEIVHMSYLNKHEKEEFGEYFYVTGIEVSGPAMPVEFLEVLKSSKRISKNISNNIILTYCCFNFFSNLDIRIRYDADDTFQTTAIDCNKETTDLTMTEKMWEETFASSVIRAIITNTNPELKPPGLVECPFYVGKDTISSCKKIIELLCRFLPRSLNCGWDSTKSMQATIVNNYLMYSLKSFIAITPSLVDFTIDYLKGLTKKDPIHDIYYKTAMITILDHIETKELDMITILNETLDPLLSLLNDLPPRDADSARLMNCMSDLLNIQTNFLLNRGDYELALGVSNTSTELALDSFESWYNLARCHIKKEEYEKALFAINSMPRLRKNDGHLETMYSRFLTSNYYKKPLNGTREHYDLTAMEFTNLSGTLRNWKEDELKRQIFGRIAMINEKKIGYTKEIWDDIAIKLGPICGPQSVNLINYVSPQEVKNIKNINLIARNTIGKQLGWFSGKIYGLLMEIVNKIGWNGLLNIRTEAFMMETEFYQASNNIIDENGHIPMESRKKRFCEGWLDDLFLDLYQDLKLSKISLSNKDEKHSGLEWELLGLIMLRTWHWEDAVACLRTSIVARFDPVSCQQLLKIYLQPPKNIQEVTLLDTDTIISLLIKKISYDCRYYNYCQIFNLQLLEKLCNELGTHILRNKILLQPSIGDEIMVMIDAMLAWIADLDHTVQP
Sequence of Complex of Chs5p with two paralogues (Chs6p and Bch1p) (Q05029 whole entry, chain 3 of 3): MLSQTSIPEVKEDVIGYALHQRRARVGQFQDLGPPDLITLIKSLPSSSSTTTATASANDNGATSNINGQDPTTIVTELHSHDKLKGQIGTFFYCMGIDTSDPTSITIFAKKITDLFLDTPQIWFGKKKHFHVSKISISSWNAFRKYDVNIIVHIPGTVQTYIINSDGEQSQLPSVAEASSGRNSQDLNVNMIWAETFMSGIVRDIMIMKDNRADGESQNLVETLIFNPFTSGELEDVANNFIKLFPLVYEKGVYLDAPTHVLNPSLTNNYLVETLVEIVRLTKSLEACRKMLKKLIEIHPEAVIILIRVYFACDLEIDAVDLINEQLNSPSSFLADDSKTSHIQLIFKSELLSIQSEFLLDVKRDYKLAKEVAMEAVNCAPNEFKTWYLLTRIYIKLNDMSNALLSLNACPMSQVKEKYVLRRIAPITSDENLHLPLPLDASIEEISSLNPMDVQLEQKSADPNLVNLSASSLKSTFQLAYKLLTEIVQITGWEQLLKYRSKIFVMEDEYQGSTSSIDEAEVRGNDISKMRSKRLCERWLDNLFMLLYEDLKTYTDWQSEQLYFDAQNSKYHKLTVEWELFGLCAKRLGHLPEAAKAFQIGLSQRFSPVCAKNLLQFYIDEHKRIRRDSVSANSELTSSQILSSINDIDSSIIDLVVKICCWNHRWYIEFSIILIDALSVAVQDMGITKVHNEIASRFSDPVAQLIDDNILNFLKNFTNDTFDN

concentration of Chs5–Chs6[all] at which binding was saturated (∼1 μM mArf1p) [1]: 0.5 µM | stoichiometry N (Arf1 per Chs5–Chs6[all] complex (molar)) [1]: 7.5
Molecule: Chs5–Chs6[all] complex (from UniProt Q12114 1-671; P40955 1-746; Q05029 1-724; Q08754 1-746; P36122 1-765)

binding result (Chs5–Chs6[all] complex [2]): binds
B1: Recombinant myristoylated Arf1p (Q71L; GTPase deficient) (natural protein, yeast, UniProt P11076 1-181, looked up)
chain: MGLFASKLFSNLFGNKEMRILMVGLDGAGKTTVLYKLKLGEVITTIPTIGFNVETVQYKNISFTVWDVGGLDRIRSLWRHYYRNTEGVIFVVDSNDRSRIGEAREVMQRMLNEDELRNAAWLVFANKQDLPEAMSAAEITEKLGLHSIRNRPWFIQATCATSGEGLYEGLEWLSNSLKNST
modifications: N-myristoylated (>75% of the protein)

binding result (Chs5–Chs6[all] complex [3]): binds | binding result [4]: binds
B2: Myristoylated wild-type Arf1p (natural protein, yeast, UniProt P11076 1-181, looked up)
chain: MGLFASKLFSNLFGNKEMRILMVGLDGAGKTTVLYKLKLGEVITTIPTIGFNVETVQYKNISFTVWDVGGQDRIRSLWRHYYRNTEGVIFVVDSNDRSRIGEAREVMQRMLNEDELRNAAWLVFANKQDLPEAMSAAEITEKLGLHSIRNRPWFIQATCATSGEGLYEGLEWLSNSLKNST
modifications: N-myristoylated (>75% of the protein)
